The test deals with T1, mBDNF (成熟脑源性神经营养因子, mature brain-derived neurotrophic factor) (Helarctos malayanus (Malayan sun bear) (Ursus malayanus)) (UniProt O18753).
T1 sequence: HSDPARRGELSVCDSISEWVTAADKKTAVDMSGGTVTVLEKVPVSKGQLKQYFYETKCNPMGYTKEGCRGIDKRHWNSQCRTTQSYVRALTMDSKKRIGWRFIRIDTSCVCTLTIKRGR
Nature of the test: ELISA; antigen coated on the plate, purified antibody added, secondary antibody, TMB, OD450. A general note: ELISA stands for enzyme-linked immunosorbent assay.

The values that follow come from patent CN112646029A.

B1: 抗mBDNF抗体 (anti-mature brain-derived neurotrophic factor antibody) (antibody, V domains shown)
VH: EVKLEESGGGLVQPGGSMKLSCVASGFTFNNYWMNWVRQSPGKGLEWVAQIRLDSDNYATHYAESVIGRFTISSDDSKSSVYLQMNNLRAEDTGIYYCTAFDYAMDYWGQGTSVTVSS
VL: DIVMTQSHKFMSTSVGDRVSITCKASQDVGSAVAWYQQKPGQSPKLLIYWASTRHTGVPNRFTGSGSGTDFTLTISNVHSEDLADYFCQQYSSYPLTFGSRTKLEIK
For B1, the lowest antigen concentration at which the antigen was detected is 1.95 ng/mL.
